Measured values taken from doi:10.1101/2021.03.09.434581.
Values joined by “and” are separate entries in the source; they are usually repeats but may differ in a detail not shown here. Equal entries are not always repeated.

Assays:
[1] = target: Vibrio cholerae ParD2 N-terminal domain as found in the crystal (Vibrio cholerae); assay: crystal structure
[2] = target: Vibrio cholerae ParD2 antitoxin, full length (Vibrio cholerae); assay: SEC-MALS
[3] = target: Vibrio cholerae ParD2 antitoxin, full length (Vibrio cholerae); assay: SEC-SAXS

Row | Substance | stoichiometry N [1] | stoichiometry N [2] | stoichiometry N [3]
1 | Vibrio cholerae ParD2 N-terminal domain as found in the crystal (domain or fragment) | 16 | – | –
2 | Vibrio cholerae ParD2 antitoxin, full length (natural protein) | – | 10 and 12 and 8 | 12
